How the values were obtained:
MS2 coat protein [1] = assay: apparent KD of MS2 coat protein, switch ON state; designed switch direction (-1 OFF switch, 1 ON switch): -1; higher = weaker reporter binding; conditions: FMN input: 0 or 200 uM; Eterna round: R93 (includes R88 designs)
In short: (§1)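 Illumina sequencing clusters were used for on-chip transcription of designed RNA switches. Titration with SNAP-549-labelled MS2 coat protein followed, in twofold steps from 0.7 or 1.5 nM to 3 µM in 100 mM Tris-HCl pH 7.5, 80 mM KCl, 4 mM MgCl2, without or with constant ligand. Apparent KD is each design's median of fits to normalised cluster binding curves.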

MS2 coat protein [2] = assay: apparent KD of MS2 coat protein, switch OFF state (with FMN for OFF switches, without FMN for ON switches); designed switch direction (-1 OFF switch, 1 ON switch): -1; higher = weaker reporter binding; conditions: FMN input: 0 or 200 uM; Eterna round: R93 (includes R88 designs)
In short: as §1

Row | Sequence | apparent KD of MS2 coat protein (MS2 coat protein [1]) [nM] | apparent KD of MS2 coat protein (MS2 coat protein [2]) [nM]
1 | AAGAAGCGAGGAUAUACAAAAUAAAAGAAAAGAAAGAAAGAACAUGAGGAUCACCCAUGUAGAAGGCGUAAGAA [Sankhenre Sewadjtu] | 13.3 | 11.1
2 | AAGAAGUCAGGAUAUACAUGAGGAUCACCCAUGUAAAAGAAAGAGGGAAAAGAGAAAAGUAGAAGGGACAAGAA [Arsinoe I] | 29.1 | 32.1
3 | AAGAAGUCAGGAUAUGCCAGAGAUCAAGAAAGUGACGAGUAGCAGAAGGGACAUGAGGAUCACCCAUGUAAAGA [Opal 8] | 45.9 | 36.9
4 | AAGAAGUCAGGAUAUGCUGCUCGUCACAAAAGUGAUGAGUAGCAGAAGGGACAUGAGGAUCACCCAUGUAAAGA [JL eternac mod 0] | 52 | 67.5
5 | AAGAAGUCAGGAUAUGCUUGUCGUCACAAAAGUGAUGACGAGCAGAAGGGACAUGAGGAUCACCCAUGUAAAGA [JL eternac mod 1] | 42.1 | 41.9
6 | AAGAAGUGAGGAUAUCCAAAAGAAAAGAAAAGAAAAGAAAAGGAGAAGGCACAUGAGGAUCACCCAUGUAAGAA [Ankhkaenre Psamtik III] | 26.3 | 28.4
7 | AAGAAUGAAGGAUAUACAUGAGGAUCACCCAUGUAAAAGAAAGAGGGAAAAGAGAAAAGUAGAAGGUCAAAGAA [Ptolemy XI Alexander II] | 19.8 | 20.4
8 | AAGACUAGAGGAUAUACAUGAGGAUCACCCAUGUAACUGUCAGGAAACUGACGGAGAUGUAGAAGGCUAGUCAA [Mat - Exclusion 3 - Neo mod - D75] | 16.7 | 38.4
9 | AAGAGUAGAGGAUAUACAUGAGGAUCACCCAUGUAAUCCAGAUAAGGAAGCAUGUCGUGUAGAAGGCUGCAUGA [MOD 2 of Nando (MS2 Riboswitches- Exclusion 3)] | 15.9 | 14.4
10 | AAGAUGUGAGGAUAUGCUUGUCGUCACAAAAGUGAUGACGAGCAGAAGGCACAUGAGGAUCACCCAUGUAAAGA [Opal 26] | 90.1 | 147
11 | AAGGGACAUGAGGAUCACCCAUGUGAGGAUAUGACGUAAAGAAAGAAAGAAGAAAUCGUCAGAAGGCACACCAA [Mat - Exclusion 1 - Eli mod - D70] | 70.6 | 118
12 | AAGGUACGAGGAUAUACAUAGAUACAGACACAUGUACAUGUACAUGAGGAUCACCCAUGUAGAAGGCGUAUAUG [Mat - Same state - Mayanna Mod - D109] | 67.5 | 73.9
13 | AAGUACGAAGGAUAUACAUGGAUAUACAUUCAUGUGGACCUACAUGAGGAUCACCCAUGUAGAAGGUCGUAAUA [Mat - Same state - Mayanna Mod - D145] | 24.6 | 12.8
14 | AAGUGGGCAGGAUAUACAUGAGGAUCACCCAUGUAAAGAAAAGAAAGAUCCGAAGAAAGUAGAAGGGCCUGCAA [Mod 1 of Ex3 sub 3, by Tesla's Dusciple Round 1] | 144 | 137
15 | AAUAACAGAGGAUAUGCGAAAAUAAGCGGAAACGCAAAGGGACAUGAGGAUCACCCAUGUAGAAGGCUGGAUAA [Tetraloop... 61% 1] | 34.4 | 29.5
16 | AAUAACCGAGGAUAUACAAAACUUGUGAUCUAGUGGAUUUUACAUGAGGAUCACCCAUGUAGAAGGCGGAAAAG [Veenquge] | 61.3 | 212
17 | AAUAACCGAGGAUAUACAUGAGGAUCACCCAUGUGAACAUCCACGAAAAGGAUUCUGUGUAGAAGGCGGAAACC [Soquar] | 15.3 | 13.4
18 | AAUAAGAGAGGAUAUACAUAAUAAAAGAAAAGAAACAAAGAACAUGAGGAUCACCCAUGUAGAAGGCUCAAUAA [Sonbef] | 21.9 | 18.9
19 | AAUAAGUCAGGAUAUGCAAAUAAUAAAUAAAAUAAAAUAAAGCAGAAGGGACAUGAGGAUCACCCAUGUAAAUA [Opal 40] | 47.9 | 41
20 | AAUACACAUGAGGAUCACCCAUGUAAGGAUAUCGAAAAAAAACUAAACAAAAAACAAACGAGAAGGUACAAAAA [Exclusion 1 design 4] | 30.4 | 23.9

Row | Sequence | apparent KD of MS2 coat protein (MS2 coat protein [1]) [nM] | apparent KD of MS2 coat protein (MS2 coat protein [2]) [nM]
21 | AAUAUCGGAGGAUAUGCAUAGAUAAAGAACCAUGUUAAAACACAUGAGGAUCACCCAUGUAGAAGGCCGAUAAA [AJ 9] | 54.1 | 77.5
22 | AAUAUGUAAGGAUAUGCUGCUCGUCACAAAAGUGAUGAGUAGCAGAAGGUACAUGAGGAUCACCCAUGUAAAGA [JL eternac mod 13] | 30.9 | 52
23 | AAUAUGUUAGGAUAUGCGAAGUCAGGACACACACUGACGAAGCAGAAGGAACAUGAGGAUCACCCAUGUAAUAA [JR_Exclusion-4 65% 6] | 27.6 | 26.6
24 | AAUAUGUUAGGAUAUGCUGCUCGUCACAAAAGUGAUGAGUAGCAGAAGGAACAUGAGGAUCACCCAUGUAAAGA [JL eternac mod 12] | 31.1 | 39
25 | AAUGGUGCAGGAUAUACAUGAGGAUCACCCAUGUACAUCAGACAUAUGGUCGAAACAUGUAGAAGGGCACCAAA [Ex 3May 55] | 107 | 336
26 | AAUUAGGUAGGAUAUACAUGAGGAUCACCCAUGUGGGAAAAAAACUACGAAAAAGAAUGUAGAAGGACCUAAAA [Mat - Exclusion 3 - Mayanna mod - D104] | 20.3 | 96.5
27 | ACCUCACAUGAGGAUCACCCAUGUUAGGAUAUGCCCGGCAGGUUCUGACCUGCCUAAAGCAGAAGGAACGUGCG [Beusus] | 17.4 | 57.9
28 | ACCUGACAUGAGGAUCACCCAUGUGAGGAUAUGUACAUCAGGAAAAAAAAACUGAUGUACAGAAGGCACAAGGG [Amethyst 49] | 23.1 | 38.7
29 | ACCUUACAUGAGGAUCACCCAUGUUAGGAUAUCUCGCUCUCGCAGUCACAGCGCAAGCAGAGAAGGGACACGGG [Maretien] | 32.6 | 36.6
30 | ACGAAACAUGAGGAUCACCCAUGUCAGGAUAUGAACGAAAAUAAAUAAAAAUAAAAGUUCAGAAGGGACGACGA [66%, Wbt, 24] | 39.5 | 53
31 | ACGACUAGAGGAUAUACAUGAGGAUCACCCAUGUAACUGUCAGAAAACUGACGGAGAUGUAGAAGGCUAGUCGA [Mat - Exclusion 3 - Neo mod - D80] | 16.7 | 36.1
32 | ACUAACGGAGGAUAUACUAACAAACCUCAAACAUACAUCAAACAUGAGGAUCACCCAUGUAGAAGGCCGAAACU [JR_Exc002_Sub004] | 34.4 | 52.8
33 | AGAAAACAUGAGGAUCACCCAUGUAAGGAUAUGCUAAGGGUGGCUUCGGCCACCCAAUGCAGAAGGUACAAAUA [Excalibur] | 20.5 | 40.7
34 | AGAAAACAUGAGGAUCACCCAUGUGAGGAUAUGCGAAAGAAAGAAAGAAAGAAAGAAAGCAGAAGGCACAAGAA [Ex 1 Tesla 2] | 15.6 | 44.4
35 | AGAAAGUCAGGAUAUGCGAAGGCGUCUGAUAGACGAGGCUAGCAGAAGGGACAUGAGGAUCACCCAUGUGAAAA [Mat - Exclusion 4 - Eli mod - D86] | 48.4 | 133
36 | AGAAUACAUGAGGAUCACCCAUGUGAGGAUAUGUAGAUAAAAAUAAAAUAAAAUAAAUACAGAAGGCGCAAAAG [EX 1 May 20] | 44.5 | 44.9
37 | AGCAAACAUGAGGAUCACCCAUGUGAGGAUAUGAACGAAAAUAAAUAAAAAUAAAAGUUCAGAAGGUACGAGCA [66%, Wbt, 27] | 27.7 | 31.9
38 | AGCACGUCAGGAUAUACGAAAAAAAAGGGUAAACUAAAGGGACAUGAGGAUCACCCAUGUAGAAGGGACAAGCA [Diamond 92] | 90.8 | 245
39 | AGCAGUACAGGAUAUACAUGAGGAUCACCCAUGUGAAAAAAAAGUGGCGUACCACAAAGUAGAAGGGUACUGCA [Mat - Exclusion 3 - JL mod - D32] | 35.4 | 108
40 | AGCUAGACAGGAUAUACGUAAAUGUCGAAAGACGUAUAGGGACAUGAGGAUCACCCAUGUAGAAGGGUCUAGCA [Diamond 100] | 22.7 | 39.6

Reference: the supplement of paper PMC9170038
